In publication PMC4810252:

Assays:
Conditions in all cases: glycan lost; control: wild type
[1] = confocal co-localisation, transient and stable 293T
[2] = HBsAg ELISA of supernatant; 293T and Huh7
[3] = sucrose gradient fractionation, stable 293T, Western blot
[4] = confocal co-localisation, transfected 293T
[5] = confocal co-localisation, stable 293T

B1: BST-2/tetherin: N65/92A (protein)
parent chain: MASTSYDYCRVPMEDGDKRCKLLLGIGILVLLIIVILGVPLIIFTIKANSEACRDGLRAVMECRNVTHLLQQELTEAQKGFQDVEAQAATCNHTVMALMASLDAEKAQGQKKVEELEGEITTLNHKLQDASAEVERLRRENQVLSVRIADKKYYPSSQDSSSAAAPQLLIVLLGLSALLQ
localisation_or_trafficking [1]: increases | other: restriction of virus release [2]: no change | localisation_or_trafficking [3]: changes

B2: BST-2/tetherin: N65A (protein)
parent chain: MASTSYDYCRVPMEDGDKRCKLLLGIGILVLLIIVILGVPLIIFTIKANSEACRDGLRAVMECRNVTHLLQQELTEAQKGFQDVEAQAATCNHTVMALMASLDAEKAQGQKKVEELEGEITTLNHKLQDASAEVERLRRENQVLSVRIADKKYYPSSQDSSSAAAPQLLIVLLGLSALLQ
localisation_or_trafficking [4]: no change | localisation_or_trafficking [5]: no change | localisation_or_trafficking [3]: changes

B3: BST-2/tetherin: N92A (protein)
parent chain: MASTSYDYCRVPMEDGDKRCKLLLGIGILVLLIIVILGVPLIIFTIKANSEACRDGLRAVMECRNVTHLLQQELTEAQKGFQDVEAQAATCNHTVMALMASLDAEKAQGQKKVEELEGEITTLNHKLQDASAEVERLRRENQVLSVRIADKKYYPSSQDSSSAAAPQLLIVLLGLSALLQ
localisation_or_trafficking [4]: no change | localisation_or_trafficking [3]: changes
